Laboratory results reported in patent US5635384 (DowElanco, dated 1997).

Biological target: T1, maize αβ RIP β fragment (maize)
T1 chain: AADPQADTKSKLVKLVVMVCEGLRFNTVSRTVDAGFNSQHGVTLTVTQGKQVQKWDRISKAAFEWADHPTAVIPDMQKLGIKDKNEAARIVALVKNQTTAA
Assay: reverse phase and ion exchange chromatography

B1: maize αβ RIP α fragment (other)
chain: KRIVPKFTEIFPVEDANYPYSAFIASVRKDVIKHCTDHKGIFQPVLPPEKKVPELWFYTELKTRTSSITLAIRMDNLYLVGFRTPGGVWWEFGKDGDTHLLGDNPRWLGFGGRYQDLIGNKGLETVTMGRAEMTRAVNDLAKKKK
  binding result: binds
